Results on 52 sequences are retold here after the supplement of paper PMC10567573.

A short description of this series: protein stability index of a GFP-peptide fusion (GPS, HEK-293T) (PSI 1-6); higher = more stable. Conditions: c terminus: a fixed tail appended.

± gives the standard deviation.
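Further: 24-mer peptide tiles fused after GFP, lentivirally expressed, FACS-sorted into six equal bins by GFP/DsRed ratio, decoded by Illumina sequencing, PSI is the read-weighted mean bin number.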

In the case of ELPDPLGGLLDEAMLDEISLMDLA [NFE2L1], the protein stability index was determined as 4.26 ± 0.54 (treatment: DMSO) and 4.55 ± 0.23 (treatment: MLN4924 1 uM, 8 h).

As to ELPTRIHEEVYFEPSSSKDSDENS [MIA2], the protein stability index (treatment: DMSO) stood at 5.34 ± 0.14 and the protein stability index (treatment: MLN4924 1 uM, 8 h) turned out to be 4.79 ± 0.58.

As to ELQGLPELHEECEGNHPSARKLTA [NET1], the protein stability index was 4.87 ± 0.21 (treatment: DMSO) and 4.56 ± 0.41 (treatment: MLN4924 1 uM, 8 h).

Turning to ELRLVFGPLGDQLHAQLRDLTSSS [ELF3], the protein stability index runs as follows: (treatment: DMSO) 2.17 ± 0.25; (treatment: MLN4924 1 uM, 8 h) 2.25 ± 0.29.

For the sequence ELRRQAPPPPPPSRGGPPPPPPPP [WASL], the protein stability index (treatment: DMSO) is 4.49 ± 0.44 and the protein stability index (treatment: MLN4924 1 uM, 8 h) is 4.64 ± 0.09.

Take ELSEVLENQSSQAELKEAVEEPSS [CHGA]: the protein stability index by setting is: (treatment: DMSO) 5.78 ± 0.21; (treatment: MLN4924 1 uM, 8 h) 5.67 ± 0.34.

Take ELTLARTDLEMQIEGLKEELAYLR [KRT16]: the protein stability index (treatment: DMSO) worked out at 2.95 ± 0.61 and the protein stability index (treatment: MLN4924 1 uM, 8 h) was 2.79 ± 0.44.

On to EMSKDANFGLRLVVQRCSGQKWMI [GALNT9], for which the protein stability index was found to be 2.2 ± 0.65 (treatment: DMSO) and 2.85 ± 1 (treatment: MLN4924 1 uM, 8 h).

Regarding EMTPEKFSVLMEKLCKKGLAATTS [FANCE], the protein stability index by setting is: (treatment: DMSO) 2.75 ± 0.57; (treatment: MLN4924 1 uM, 8 h) 2.88 ± 0.36.

Regarding ENHEIYMKDSMSAAEVGTGQYATT [EPB41L3], the protein stability index reads like this: (treatment: DMSO) 4.79 ± 0.22; (treatment: MLN4924 1 uM, 8 h) 4.83 ± 0.3.

In the case of EPEEPSEIPERRDSGVGASLTRSN [DLC1], the protein stability index runs as follows: (treatment: DMSO) 5.51 ± 0.31; (treatment: MLN4924 1 uM, 8 h) 5.46 ± 0.33.

Regarding EPGPAGPPPPPSPSSLGPLLPLQR [BTBD1], the protein stability index was 4.75 ± 0.24 (treatment: DMSO) and 4.76 ± 0.52 (treatment: MLN4924 1 uM, 8 h).

Take EPITGWRKTVCHNGVLGLSRLLFF [LPCAT4]: the protein stability index runs as follows: (treatment: DMSO) 2.57 ± 0.71; (treatment: MLN4924 1 uM, 8 h) 2.2 ± 0.37.

In the case of EPLFEAGDATLASDLQDWASVGAF [FOXJ1], the protein stability index reads like this: (treatment: DMSO) 3.85 ± 0.14; (treatment: MLN4924 1 uM, 8 h) 3.92 ± 0.4.

Turning to EPLVLYNQNLSNRPSFNRTPIPWL [MYOZ1], the protein stability index amounted to 2.39 ± 0.4 (treatment: DMSO) and 2.44 ± 0.17 (treatment: MLN4924 1 uM, 8 h).

As for EPQTEHQQESESEIDSVPKTQSEL [MIA2], the protein stability index (treatment: DMSO) amounted to 5.46 ± 0.13 and the protein stability index (treatment: MLN4924 1 uM, 8 h) was determined as 5.59 ± 0.21.

Take EPQWFYEETESSDDVEVLTLKKFK [C8orf76]: the protein stability index (treatment: DMSO) was 4.66 ± 0.094 and the protein stability index (treatment: MLN4924 1 uM, 8 h) stood at 4.74 ± 0.15.

ESEGSESSGRSCRNERSIQEKLQV [SMG5]: the protein stability index was 4.82 ± 0.12 (treatment: DMSO) and 4.75 ± 0.27 (treatment: MLN4924 1 uM, 8 h).

As to ESSVPVTPSVPPPASQHSTPAGLP [FBF1], the protein stability index by setting is: (treatment: DMSO) 5.04 ± 0.18; (treatment: MLN4924 1 uM, 8 h) 5.19 ± 0.17.

With ETAVEGDPSGVSGATVGRKSRRSR [C18orf25], the protein stability index turned out to be 5.484 ± 0.04 (treatment: DMSO) and 5.5 ± 0.25 (treatment: MLN4924 1 uM, 8 h).

As to ETEARYSSQLAQMQCLISNVEAQL [KRT36], the protein stability index by setting is: (treatment: DMSO) 3.26 ± 0.31; (treatment: MLN4924 1 uM, 8 h) 3.2 ± 0.34.

Regarding ETLPELKDDKDFTGTVHRIDNTTV [KCNA1], the protein stability index was 5.12 ± 0.24 (treatment: DMSO) and 5.17 ± 0.072 (treatment: MLN4924 1 uM, 8 h).

Regarding ETRVWHRRDGKWQNVHFHRSGSPT [CAMK2D], the protein stability index was 3.74 ± 0.35 (treatment: DMSO) and 3.71 ± 0.17 (treatment: MLN4924 1 uM, 8 h).

As for EVEKRGINGSEGDGAEIAEKFVFF [DYNC2LI1], the protein stability index by setting is: (treatment: DMSO) 3.8 ± 0.33; (treatment: MLN4924 1 uM, 8 h) 4.41 ± 0.34.

Sequence EVLRRLTSSVSCALDEAAAALTRM [ANKRD17] showed a protein stability index (treatment: DMSO) of 2.3 ± 0.53 and a protein stability index (treatment: MLN4924 1 uM, 8 h) of 2.1 ± 0.3.

EVLRSEAGIELIIEDDIRPEKQKR [MYBL2] gave a protein stability index (treatment: DMSO) of 4.21 ± 0.24 and a protein stability index (treatment: MLN4924 1 uM, 8 h) of 4.31 ± 0.34.

On to EVVMNSQQTPVGTPKDKRVSNTPL [PALM], for which the protein stability index stood at 3.44 ± 0.2 (treatment: DMSO) and 3.61 ± 0.2 (treatment: MLN4924 1 uM, 8 h).

EWNQKRARKAMRNGISPIIIDNTN [N4BP2L1]: the protein stability index by setting is: (treatment: DMSO) 2.65 ± 0.16; (treatment: MLN4924 1 uM, 8 h) 3.02 ± 0.55.

As to EYQLFEELGKGAFSVVRRCMKIPT [CAMK2D], the protein stability index was determined as 2.07 ± 0.27 (treatment: DMSO) and 2.2 ± 0.54 (treatment: MLN4924 1 uM, 8 h).

As for FDLAKGNAGKVNLPKELPADAVNL [PLAGL1], the protein stability index by setting is: (treatment: DMSO) 4.41 ± 0.21; (treatment: MLN4924 1 uM, 8 h) 4.5 ± 0.29.

For FDPDAKGLSDPGKIKRLRSQVQVS [HNF4A], the protein stability index amounted to 3.84 ± 0.18 (treatment: DMSO) and 4.06 ± 0.28 (treatment: MLN4924 1 uM, 8 h).

On to FEDLNKRKDTKEIYTHFTCATDTK [GNAI1], for which the protein stability index is, setting by setting: (treatment: DMSO) 4.57 ± 0.16; (treatment: MLN4924 1 uM, 8 h) 4.41 ± 0.42.

Take FEEFVHYLQDHEKKLRLVFKSLDK [SLC25A25]: the protein stability index by setting is: (treatment: DMSO) 2.18 ± 0.27; (treatment: MLN4924 1 uM, 8 h) 2.51 ± 0.31.

In the case of FFRMFDRNTKRDVTLEASRENSKP [PPP2R2B], the protein stability index turned out to be 3.45 ± 0.14 (treatment: DMSO) and 3.82 ± 0.23 (treatment: MLN4924 1 uM, 8 h).

Take FGAAYVLEQASSHIGNSTQATVRD [ATL3]: the protein stability index is, setting by setting: (treatment: DMSO) 3.06 ± 0.28; (treatment: MLN4924 1 uM, 8 h) 3.72 ± 0.33.

As to FGLTYRDAENQKNWLDPAKEIKKQ [EPB41L3], the protein stability index reads like this: (treatment: DMSO) 3.68 ± 0.082; (treatment: MLN4924 1 uM, 8 h) 4.15 ± 0.089.

Turning to FGTIISGIQLLIVEYKDIASIHWD [SLC35F2], the protein stability index is, setting by setting: (treatment: DMSO) 3.15 ± 0.29; (treatment: MLN4924 1 uM, 8 h) 3 ± 0.34.

As for FHNLRNTLDGYGIHPKSIDLDNYF [NFE2L1], the protein stability index by setting is: (treatment: DMSO) 2.31 ± 0.44; (treatment: MLN4924 1 uM, 8 h) 2.07 ± 0.15.

Consider FKHTLSISRALLSDVVPEKERPLV [MFSD9], for which the protein stability index by setting is: (treatment: DMSO) 3.04 ± 0.12; (treatment: MLN4924 1 uM, 8 h) 3.24 ± 0.21.

FLAAEQDIREEIRKVVQSLEQTAR [TSN]: the protein stability index reads like this: (treatment: DMSO) 2.57 ± 0.45; (treatment: MLN4924 1 uM, 8 h) 3.25 ± 0.64.

Regarding FLFNSELLSDVRFVLGKGRGAAAA [BTBD1], the protein stability index runs as follows: (treatment: DMSO) 2.12 ± 0.33; (treatment: MLN4924 1 uM, 8 h) 2.33 ± 0.34.

Sequence FLMLINLGLGSMIGTMAGITTPII [SLC6A17] yielded a protein stability index (treatment: DMSO) of 3.1 ± 0.31 and a protein stability index (treatment: MLN4924 1 uM, 8 h) of 3.03 ± 0.76.

For FLQEEAIDRNYVPGKSLAVSCPGW [SNX12], the protein stability index (treatment: DMSO) stood at 2.73 ± 0.3 and the protein stability index (treatment: MLN4924 1 uM, 8 h) came to 3.2 ± 0.2.

Regarding FMLMLLVLGIQVKCFHEIITIGYR [CDS1], the protein stability index by setting is: (treatment: DMSO) 3.31 ± 0.45; (treatment: MLN4924 1 uM, 8 h) 3.3 ± 0.41.

FNIFDWLGRSLTAVFMWPGKDSRW [SLC29A1]: the protein stability index by setting is: (treatment: DMSO) 2.45 ± 0.79; (treatment: MLN4924 1 uM, 8 h) 2.63 ± 0.5.

Turning to FPKSEQVYLHFLSVVTEDGPEPKD [ZNF232], the protein stability index reads like this: (treatment: DMSO) 2.58 ± 0.5; (treatment: MLN4924 1 uM, 8 h) 3.39 ± 0.56.

With FQTRQEMTSMSAELKMRAIQAEER [LRRC45], the protein stability index turned out to be 4.12 ± 0.29 (treatment: DMSO) and 4.48 ± 0.22 (treatment: MLN4924 1 uM, 8 h).

In the case of FQVLCSINSIIHNPRAPVIIYKQT [CEP70], the protein stability index is, setting by setting: (treatment: DMSO) 2.76 ± 0.83; (treatment: MLN4924 1 uM, 8 h) 2.6 ± 1.1.

FSGSNEVDQMNRIVEVLGIPPAAM [DYRK1B]: the protein stability index stood at 2.94 ± 0.14 (treatment: DMSO) and 3.23 ± 0.22 (treatment: MLN4924 1 uM, 8 h).

Consider FSIPPWRYDAEVVAIAQKFAALRA [MYORG], for which the protein stability index by setting is: (treatment: DMSO) 2.15 ± 0.3; (treatment: MLN4924 1 uM, 8 h) 2.22 ± 0.17.

FSPTPPQQFQPAGTDQVCVLEWGA [FCHSD1]: the protein stability index reads like this: (treatment: DMSO) 2.49 ± 0.27; (treatment: MLN4924 1 uM, 8 h) 2.86 ± 0.35.

As for FSTRALVLSILHATLPGIFMLLLI [SOAT2], the protein stability index (treatment: DMSO) was 3.16 ± 0.35 and the protein stability index (treatment: MLN4924 1 uM, 8 h) came out at 3.37 ± 0.52.
